{"source": "paper PMC9399289", "about": "“Extended DNA-binding interfaces beyond the canonical SAP domain contribute to the function of replication stress regulator SDE2 at DNA replication forks”", "key": {"GST-SDE2 ΔSAP+CTT": {"biological_target": "T1, GST-SDE2 ΔSAP+CTT (human, UniProt Q6IQ49 1-394, del395-451)", "T1 sequence": "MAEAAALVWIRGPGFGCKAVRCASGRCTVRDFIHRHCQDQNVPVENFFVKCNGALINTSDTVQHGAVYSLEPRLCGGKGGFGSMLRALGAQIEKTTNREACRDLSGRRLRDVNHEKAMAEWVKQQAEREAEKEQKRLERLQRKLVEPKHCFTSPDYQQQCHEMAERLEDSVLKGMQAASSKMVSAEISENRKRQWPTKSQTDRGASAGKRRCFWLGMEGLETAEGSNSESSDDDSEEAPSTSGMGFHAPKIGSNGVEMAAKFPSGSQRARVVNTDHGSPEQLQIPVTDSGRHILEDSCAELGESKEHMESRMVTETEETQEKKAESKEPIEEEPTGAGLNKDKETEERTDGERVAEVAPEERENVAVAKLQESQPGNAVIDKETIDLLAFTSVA", "experiment": "EMSA; 50-200 nM protein; EMSA: 10 mM Tris-HCl pH 7.5, 50 mM NaCl, 0.5 mM DTT, 0.05 mM EDTA, 3% glycerol, 0.05 mg/ml BSA (or 50 mM Na/K PO4 pH 6.0, 50 mM NaCl, 5 mM DTT), on ice; anisotropy: 50 mM Na/K PO4 pH 6.0, 50 mM NaCl, 5 mM DTT, 1 uM DNA; pull-down: 10 mM Tris-HCl pH 7.5, 100 mM NaCl, 0.2 mM EDTA, 1 mM DTT, 10% glycerol, 0.01% NP-40, 10 ug/ml BSA, RT; NMR: 50 mM Na/K phosphate, 50 mM NaCl, 5 mM DTT, 10% D2O", "conditions": "protein: recombinant; tags: N-term GST; label: 5' 6-FAM"}, "GST-SDE2-FLAG WT": {"biological_target": "T2, GST-SDE2-FLAG WT (human, UniProt Q6IQ49 1-451)", "T2 sequence": "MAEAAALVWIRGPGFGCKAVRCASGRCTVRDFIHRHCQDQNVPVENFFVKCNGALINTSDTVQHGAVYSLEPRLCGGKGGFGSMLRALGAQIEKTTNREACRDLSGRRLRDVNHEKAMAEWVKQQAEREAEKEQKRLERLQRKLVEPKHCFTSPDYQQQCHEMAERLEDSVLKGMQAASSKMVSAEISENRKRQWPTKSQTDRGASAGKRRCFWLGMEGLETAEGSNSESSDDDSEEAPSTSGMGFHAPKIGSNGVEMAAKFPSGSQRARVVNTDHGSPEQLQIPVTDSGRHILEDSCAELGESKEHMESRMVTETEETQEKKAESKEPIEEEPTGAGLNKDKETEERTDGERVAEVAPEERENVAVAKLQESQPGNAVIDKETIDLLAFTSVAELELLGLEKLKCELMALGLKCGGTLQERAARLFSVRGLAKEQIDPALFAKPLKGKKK", "experiment": "fluorescence anisotropy; EMSA: 10 mM Tris-HCl pH 7.5, 50 mM NaCl, 0.5 mM DTT, 0.05 mM EDTA, 3% glycerol, 0.05 mg/ml BSA (or 50 mM Na/K PO4 pH 6.0, 50 mM NaCl, 5 mM DTT), on ice; anisotropy: 50 mM Na/K PO4 pH 6.0, 50 mM NaCl, 5 mM DTT, 1 uM DNA; pull-down: 10 mM Tris-HCl pH 7.5, 100 mM NaCl, 0.2 mM EDTA, 1 mM DTT, 10% glycerol, 0.01% NP-40, 10 ug/ml BSA, RT; NMR: 50 mM Na/K phosphate, 50 mM NaCl, 5 mM DTT, 10% D2O", "conditions": "protein: recombinant; tags: N-term GST, C-term FLAG; label: 5' 6-FAM"}, "GST-SDE2SAP": {"biological_target": "T3, GST-SDE2SAP (human, UniProt Q6IQ49 350-451)", "T3 sequence": "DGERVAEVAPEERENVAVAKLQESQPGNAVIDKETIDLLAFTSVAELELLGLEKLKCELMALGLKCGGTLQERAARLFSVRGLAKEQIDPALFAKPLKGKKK", "experiment": "fluorescence anisotropy; EMSA: 10 mM Tris-HCl pH 7.5, 50 mM NaCl, 0.5 mM DTT, 0.05 mM EDTA, 3% glycerol, 0.05 mg/ml BSA (or 50 mM Na/K PO4 pH 6.0, 50 mM NaCl, 5 mM DTT), on ice; anisotropy: 50 mM Na/K PO4 pH 6.0, 50 mM NaCl, 5 mM DTT, 1 uM DNA; pull-down: 10 mM Tris-HCl pH 7.5, 100 mM NaCl, 0.2 mM EDTA, 1 mM DTT, 10% glycerol, 0.01% NP-40, 10 ug/ml BSA, RT; NMR: 50 mM Na/K phosphate, 50 mM NaCl, 5 mM DTT, 10% D2O", "conditions": "protein: recombinant; tags: N-term GST; label: 5' 6-FAM"}, "GST-SDE2-FLAG ΔSAP": {"biological_target": "T4, GST-SDE2-FLAG ΔSAP (human, UniProt Q6IQ49 1-451, del395-427)", "T4 sequence": "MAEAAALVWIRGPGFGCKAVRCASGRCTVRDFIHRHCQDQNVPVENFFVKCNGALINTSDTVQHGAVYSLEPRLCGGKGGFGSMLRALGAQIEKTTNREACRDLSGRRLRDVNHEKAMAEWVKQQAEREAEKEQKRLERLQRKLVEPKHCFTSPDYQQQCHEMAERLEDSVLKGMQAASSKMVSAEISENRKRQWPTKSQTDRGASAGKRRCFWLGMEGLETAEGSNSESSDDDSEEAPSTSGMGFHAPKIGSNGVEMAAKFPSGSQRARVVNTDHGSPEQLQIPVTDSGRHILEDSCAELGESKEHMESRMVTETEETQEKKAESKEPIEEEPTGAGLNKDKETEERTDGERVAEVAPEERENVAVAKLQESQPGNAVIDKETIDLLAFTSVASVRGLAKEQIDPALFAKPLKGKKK", "experiment": "EMSA; 200 nM protein, 50 nM DNA; EMSA: 10 mM Tris-HCl pH 7.5, 50 mM NaCl, 0.5 mM DTT, 0.05 mM EDTA, 3% glycerol, 0.05 mg/ml BSA (or 50 mM Na/K PO4 pH 6.0, 50 mM NaCl, 5 mM DTT), on ice; anisotropy: 50 mM Na/K PO4 pH 6.0, 50 mM NaCl, 5 mM DTT, 1 uM DNA; pull-down: 10 mM Tris-HCl pH 7.5, 100 mM NaCl, 0.2 mM EDTA, 1 mM DTT, 10% glycerol, 0.01% NP-40, 10 ug/ml BSA, RT; NMR: 50 mM Na/K phosphate, 50 mM NaCl, 5 mM DTT, …", "conditions": "protein: recombinant; tags: N-term GST, C-term FLAG; label: 5' 6-FAM"}, "GST-SDE2 CGTKK": {"biological_target": "T5, GST-SDE2 CGTKK (human, UniProt Q6IQ49 1-451, C415A;G417S;T418V;K444A;K447A)", "T5 sequence": "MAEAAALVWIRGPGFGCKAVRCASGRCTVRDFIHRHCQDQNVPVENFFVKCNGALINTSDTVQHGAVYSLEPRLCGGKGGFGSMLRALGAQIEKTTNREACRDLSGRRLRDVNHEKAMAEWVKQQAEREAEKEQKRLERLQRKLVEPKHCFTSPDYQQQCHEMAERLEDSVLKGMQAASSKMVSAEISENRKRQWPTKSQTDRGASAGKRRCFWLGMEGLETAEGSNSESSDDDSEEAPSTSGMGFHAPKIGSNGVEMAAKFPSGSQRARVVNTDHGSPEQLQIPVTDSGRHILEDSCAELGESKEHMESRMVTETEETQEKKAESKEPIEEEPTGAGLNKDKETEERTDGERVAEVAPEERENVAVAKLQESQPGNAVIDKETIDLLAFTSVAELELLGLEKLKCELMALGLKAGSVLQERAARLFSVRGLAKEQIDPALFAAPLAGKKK", "experiment": "EMSA; 50-200 nM protein, 20 nM DNA; EMSA: 10 mM Tris-HCl pH 7.5, 50 mM NaCl, 0.5 mM DTT, 0.05 mM EDTA, 3% glycerol, 0.05 mg/ml BSA (or 50 mM Na/K PO4 pH 6.0, 50 mM NaCl, 5 mM DTT), on ice; anisotropy: 50 mM Na/K PO4 pH 6.0, 50 mM NaCl, 5 mM DTT, 1 uM DNA; pull-down: 10 mM Tris-HCl pH 7.5, 100 mM NaCl, 0.2 mM EDTA, 1 mM DTT, 10% glycerol, 0.01% NP-40, 10 ug/ml BSA, RT; NMR: 50 mM Na/K phosphate, 50 mM NaCl, 5 mM DTT, …", "conditions": "protein: recombinant; tags: N-term GST; label: 5' 6-FAM"}}}
{"binder": "60-mer ssDNA (EMSA1) (ssDNA) DNA: GACGCTGCCGAATTCTACCAGTGCCTTGCTAGGACATCTTTGCCCACCTGCAGGTTCACCC", "values": [{"measurement": "binding result", "setting": "GST-SDE2 ΔSAP+CTT", "value": "no binding"}, {"measurement": "Kd", "setting": "GST-SDE2-FLAG WT", "value": "~1.1", "unit": "µM"}, {"measurement": "Kd", "setting": "GST-SDE2SAP", "value": "1.77 ± 0.41", "unit": "µM"}, {"measurement": "binding result", "setting": "GST-SDE2-FLAG ΔSAP", "value": "no binding"}, {"measurement": "binding result", "setting": "GST-SDE2 CGTKK", "value": "no binding"}]}
